For the assay, the target named is PRPF40A WW12 (tandem WW domains, residues 141-236) (human, UniProt O75400 141-236). The experiment in a line: ITC. (In general: In ITC the heat of successive injections is recorded.)

This note sets out measurements from paper PMC11079029 (2024).

PRPF40A WW12 (tandem WW domains, residues 141-236), sequence (O75400 141-236): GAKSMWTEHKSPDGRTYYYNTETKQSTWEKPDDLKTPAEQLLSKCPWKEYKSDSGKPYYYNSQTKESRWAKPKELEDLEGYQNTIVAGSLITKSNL

By Kd is commonly meant a measure of binding affinity in units of concentration. GAMSGSPPPPPPPPPPPPPPPPSGSN [GB1-tagged polyproline peptide P16] yielded a Kd of 3.35 µM.
The value for GAMSGSPPPPPPPPPPSGSN [GB1-polyproline peptide P10] was 28.6 µM.
